Experiment [1] deals with recombinant rat IgA-Fc segment CH2-CH3-TP, C311S mutant. Kind of experiment: SEC (size-exclusion chromatography), self-association into poly-rIgA. Particulars: parent: est. 32; read off a plot. A general note: In gel filtration, larger molecules generally elute earlier.
For experiment [2], the target named is recombinant rat IgA-Fc segment CH2-CH3-TP, C471S mutant. Described as above. The conditions noted are these: parent: est. 32; read off a plot.
For experiment [3], the target named is recombinant human IgA1-Fc CH2-CH3-TP, C471S mutant. The experiment is described as follows: SEC (size-exclusion chromatography), self-association into poly-hu-rIgA. Particulars: parent: est. 9.0; read off a plot.
In experiment [4] the target is recombinant rat IgA-Fc segment CH2-CH3-TP, C311/471S double mutant. Kind of experiment: SEC (size-exclusion chromatography), self-association into poly-rIgA. Particulars: parent: est. 32; read off a plot.

Take “recombinant rat IgA-Fc segment CH2-CH3-TP, wild type (rat rIgA) C311S”: the other: Distribution (%), poly-rIgA share of SEC AUC in experiment [1] is 28%.
Take “recombinant rat IgA-Fc segment CH2-CH3-TP, wild type (rat rIgA) C471S”: the other: Distribution (%), poly-rIgA share of SEC AUC in experiment [2] amounted to 2.5%.
As to “recombinant human IgA1-Fc CH2-CH3-TP, wild type (human rIgA1-Fc) C471S”, the other: Distribution (%), poly-hu-rIgA share of SEC AUC in experiment [3] is 4%.
Take “recombinant rat IgA-Fc segment CH2-CH3-TP, wild type (rat rIgA) C311S; C471S”: the other: Distribution (%), poly-rIgA share of SEC AUC in experiment [4] is 1.5%.

Values taken from article PMC8525636.
